Data on 1 molecule can be found in patent US20250277030A1, “ANTI-NAPI2B ANTIBODIES AND METHODS OF USE” (Zymeworks BC Inc., priority 2022, published 2025).

The target in one experiment is T1, mouse NaPi2b (Mus musculus, UniProt Q9DBP0).
T1 construct: expressed in transfected cells; host or cells: HEK293-6e
T1 sequence (Q9DBP0 1-697): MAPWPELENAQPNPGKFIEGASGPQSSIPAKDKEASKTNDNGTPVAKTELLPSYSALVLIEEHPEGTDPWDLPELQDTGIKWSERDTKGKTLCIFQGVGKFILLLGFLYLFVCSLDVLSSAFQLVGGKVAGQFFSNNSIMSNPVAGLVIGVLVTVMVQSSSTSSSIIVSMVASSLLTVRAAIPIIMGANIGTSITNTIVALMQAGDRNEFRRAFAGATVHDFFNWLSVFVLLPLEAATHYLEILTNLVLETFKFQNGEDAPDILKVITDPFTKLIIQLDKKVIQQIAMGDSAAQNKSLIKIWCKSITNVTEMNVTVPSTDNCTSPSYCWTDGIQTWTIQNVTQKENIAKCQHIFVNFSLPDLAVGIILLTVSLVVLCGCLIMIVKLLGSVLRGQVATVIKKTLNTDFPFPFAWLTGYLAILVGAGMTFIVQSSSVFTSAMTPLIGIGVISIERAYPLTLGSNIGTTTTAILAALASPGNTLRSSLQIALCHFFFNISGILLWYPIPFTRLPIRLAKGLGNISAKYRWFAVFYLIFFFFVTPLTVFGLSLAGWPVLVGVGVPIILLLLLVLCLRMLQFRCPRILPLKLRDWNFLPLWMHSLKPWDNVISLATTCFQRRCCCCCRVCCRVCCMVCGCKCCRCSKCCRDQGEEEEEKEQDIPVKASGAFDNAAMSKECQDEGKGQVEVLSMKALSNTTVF
The experiment can be described thus: Flow cytometry binding to HEK293-6e cells transfected with mouse NaPi2b (Example 5). The settings on record: transfected HEK293-6e cells, 18-24 hours at 4° C. As for the experimental part: The binding cross-reactivity of humanized antibody variant v29456 to human, cynomolgus and mouse NaPi2b was assessed by flow cytometry using HEK293-6e transfected cells.
Briefly, HEK293-6e cells were transfected for ˜24 hours to transiently express human NaPi2b, cynomolgus or mouse NaPi2b, at 1 μg of DNA per 1 million cells. Following transfection, 50,000 cells per well were seeded in V-bottom 96-well plates and incubated with 200 nM of primary antibody for 18-24 hours at 4° C. to prevent internalization. Post-incubation, cells were washed and stained with anti-Human IgG Fc AF647 conjugate (Jackson Immuno Research Labs, West Grove, PA, Cat. No. 109-605-098, Lot. No. 124868) at 4° C. for 1 hour. Following staining and washing, fluorescence was detected by flow cytometry on BD LSRFortessa™ Cell Analyzer (BD Biosciences, Franklin Lake, NJ) with 10,000 minimum events collected per well. The AF647/APC-A GeoMean (fluorescence signal geometric mean, proportional to anti-Human AF647 binding) was calculated for the live singlet cell population for each primary antibody using FlowJo™ v8 software (BD Biosciences, Franklin Lake, NJ). The Bmax and Kd of each primary antibody were calculated using GraphPad Prism Version 9 (GraphPad Software, San Diego, CA)

For experiment [1], the target named is T2, NaPi2b expressed on TOV-21G cells (Homo sapiens, UniProt O95436).
T2 construct: IGROV-1 and TOV-21G cells express endogenous NaPi2b at high and moderate levels, respectively; endogenous in cells; host or cells: TOV-21G
T2 sequence (O95436 1-690): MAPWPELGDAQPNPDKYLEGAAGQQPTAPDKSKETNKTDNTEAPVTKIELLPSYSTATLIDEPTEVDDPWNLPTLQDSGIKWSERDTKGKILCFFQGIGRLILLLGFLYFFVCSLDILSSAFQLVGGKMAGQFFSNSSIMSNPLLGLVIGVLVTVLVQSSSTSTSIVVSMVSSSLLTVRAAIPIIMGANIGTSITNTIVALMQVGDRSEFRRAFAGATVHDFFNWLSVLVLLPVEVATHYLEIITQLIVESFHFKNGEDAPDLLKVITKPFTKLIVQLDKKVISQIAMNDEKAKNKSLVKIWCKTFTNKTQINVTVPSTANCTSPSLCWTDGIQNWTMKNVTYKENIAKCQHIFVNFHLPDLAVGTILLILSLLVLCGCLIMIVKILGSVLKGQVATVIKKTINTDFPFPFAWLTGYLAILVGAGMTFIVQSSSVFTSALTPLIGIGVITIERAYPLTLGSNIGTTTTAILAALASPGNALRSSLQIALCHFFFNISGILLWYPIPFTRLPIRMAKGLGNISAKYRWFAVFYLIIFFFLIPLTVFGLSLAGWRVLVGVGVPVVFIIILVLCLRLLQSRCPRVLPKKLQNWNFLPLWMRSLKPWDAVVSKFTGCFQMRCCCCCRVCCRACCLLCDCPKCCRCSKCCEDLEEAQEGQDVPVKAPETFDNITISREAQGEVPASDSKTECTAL
The experiment can be described thus: Cellular binding to TOV-21G cells by flow cytometry (Example 19). The settings on record: NB = no binding (apparent Kd >150 nM). As for the experimental part:
Briefly, cells were seeded at 50,000 cells/well in conical-bottom 96-well plates and treated with test antibody for 24 hours at 4° C. to prevent internalization. Palivizumab (anti-RSV antibody, v22277) was included as a negative control. […] Following incubation, cells were washed and stained with anti-Human IgG Fc AF647 conjugate (Jackson Immuno Research Labs, West Grove, PA; Cat. No. 109-605-098) at 4° C. for 30 min. Following incubation and washing, fluorescence was detected by flow cytometry on a BD LSRFortessa™ Cell Analyzer (BD Biosciences, Franklin Lake, NJ) with 1,000 minimum events collected per well. The AF647/APC-A GeoMean (fluorescence signal geometric mean, proportional to anti-Human AF647 binding) was calculated for the live cell population using FlowJo™ Version 10.8.1 (BD Biosciences, Franklin Lake, NJ) and plotted for each test antibody using GraphPad Prism Version 9 (GraphPad Software, San Diego, CA).
The ability of the humanized antibody variants v38591 and v29456 to bind to NaPi2b expressed on cells was assessed on endogenous NaPi2b-expressing tumor cell lines IGROV-1 (ovarian adenocarcinoma) and TOV-21G (ovarian carcinoma) by flow cytometry. IGROV-1 and TOV-21G cells express endogenous NaPi2b at high and moderate levels, respectively, as described in Example 10.
Cellular binding was performed according to methods described in Example 13.
For orientation: In flow cytometry, cells or beads pass a laser one at a time.

B1: v29456: humanized anti-NaPi2b IgG1/kappa antibody H1L2; VH SEQ ID NO:24, VL SEQ ID NO:29 (antibody, V domains shown)
VH: QVQLVQSGAEVKKPGASVKVSCKASGFTFTSYNVHWVRQAPGQGLEWMGAISPGNGDLSYAQKFQGRVTMTRDTSTSTVYMELSSLRSEDTAVYYCARGRTGMGAVDYWGQGTLVTVSS
VL: DVQMTQSPSSLSASVGDRVTITCRASQDVYSYLNWYQQKPGKAVKLLIYYTSRLQSGVPSRFSGSGSGTDYTLTISSLQPEDFATYYCQQYNIFPWTFGQGTKLEIK
modifications: v29452, v29456, v29460 VH (H1); v29453, v29454, v29455, v29456 VL (L2)
On to B1, for which the “Bmax (APC-A GeoMean), Ms NaPi2b” value in the experiment with mouse NaPi2b is reported as 2,062 APC-A GeoMean. Further, the Kd in the experiment with mouse NaPi2b (highest antibody concentration 200 nM, read-out: Apparent Kd (nM), Ms NaPi2b) is 10.6 nM. In experiment [1], the Bmax is given as 11,271, the “Curve Hill Slope (h)” value stood at 1.1 and the Kd amounted to 0.6 nM.
